Results taken from patent US9193770.

Target: TLR5 of the luciferase reporter assay
Test: cell-based or functional assay

Substance: native H7 flagellin purified from E. coli O157:H7 (ligand)
- luciferase reporter assay, TLR5 activity: 0.1 ng/mL
